Measurements reported in publication doi:10.1101/2022.05.13.491770 (bioRxiv, 2022).

How the values were obtained:
[1] = target: SARS-CoV-2 WA.1 spike protein (V-PLEX COVID-19 Panel 24) (SARS-CoV-2 WA.1 (ancestral), UniProt P0DTC2, strain); experiment: electrochemiluminescence multiplex binding assay
[2] = target: recombinant SARS-CoV-2 RBD (SARS-CoV-2, ancestral strain (assumed), UniProt P0DTC2); experiment: BLI

B1: 002-S21F2 full-length immunoglobulin G (IgG) (antibody, V domains shown)
VH: EVQLVQSGAEVKKPGESLKISCKASGYNFAYYWIGWVRQMPGKGLEWMGIIYPGDSDTRYSPSFQGQVTISADKSISTAYLQWSSLKASDTAMYYCARGEMTAVFGDYWGQGTLVTVSS
VL: DIQMTQSPSSLSASVGDRVTITCQASQDISNYLNWYQQKPGKAPKLLIYDASNLETGVPSRFSGSGSGTDFTLTISSLQPEDIATYYCQQYKILLTWTFGQGTKVEIK
binding result [1]: binds
binding result [2]: binds
